Measured values as given in US20200279616A1.

Biological target: T1, Thrombin digested soluble HLA-DRB1*15:01 (CLIP0 placeholder construct) (human)
Test: FP probe displacement; probe m27

Molecule | % inhibition of probe binding at 0.1uM | % inhibition of probe binding at 1uM | % inhibition of probe binding at 10uM
PPIDGYPNHPCFEPE (modifications not checked) [M230] | 49% | 79% | 82%
PQILPYPAPEEAQEN (modifications not checked) [M231] | 21% | 50% | 66%
ASLRSWPSTWAPWAS (modifications not checked) [M371] | 46% | 58% | 74%
PQLRQWWAQGADPLA (modifications not checked) [M247] | 42% | 50% | 58%
LLRPGQIVAFDSTAQ (modifications not checked) [M248] | 1% | 6% | 61%

Biological target: T2, HLA-DRB1*01:01 (biochemical MHC-peptide affinity assay) (human)
T2 chain 1: not shown
T2 chain 2: not shown
Test: biochemical MHC-peptide affinity assay

Molecule | Measured affinity
GHPDLQGQPAEEIFES (modifications not checked) | 189 nM
SPHAFKTESGEETDL (modifications not checked) | 333 nM
DKKNIILEEGKEILVG (modifications not checked) | 27 nM
DRYEMEDGKVIER (modifications not checked) | 54 nM
TWFNQPARKIR (modifications not checked) | 8 nM
GLRYKKLHDPKGWIT (modifications not checked) | 30 nM
GVQRGLVGEIIKR (modifications not checked) | 8 nM
MPSFVPSDGRQAAD (modifications not checked) | 3 nM

Biological target: T3, HLA-DRB1*11:01 (biochemical MHC-peptide affinity assay) (human)
T3 chain 1: not shown
T3 chain 2: not shown
Test: biochemical MHC-peptide affinity assay

Molecule | Measured affinity
IAGEWQVLHREGAIT (modifications not checked) | 35 nM
ENPYFAPNPKIIRQ (modifications not checked) | 128 nM
TRNEVIPMSHPGAVD (modifications not checked) | 36 nM
GMNIVEAMERFGSRNG (modifications not checked) | 79 nM
GPFSFSVIDKPPG (modifications not checked) | 209 nM
LAPTWEELSKKEFPG (modifications not checked) | 174 nM
DVNEYAPVFKEKSYK (modifications not checked) | 223 nM
YEDKFRNNLKGKRLD (modifications not checked) | 254 nM
EPAEFIIDTRDAGYG (modifications not checked) | 195 nM
EGEYQGIPRAESGG (modifications not checked) | 159 nM
GQQWTYEQRKIVE (modifications not checked) | 145 nM
LNELKPISKGGHSS (modifications not checked) | 67 nM
DLEELEVLERKPAAG (modifications not checked) | 63 nM

Biological target: T1, Thrombin digested soluble …
Test: differential scanning fluorometry after peptide exchange (Sypro orange)

Molecule | DTm (sample Tm - control Tm) | Average Tm
PPIDGYPNHPCFEPE (modifications not checked) [M230] | 21.4 | 
PQILPYPAPEEAQEN (modifications not checked) [M231] | 15.6 | 73.9
ASLRSWPSTWAPWAS (modifications not checked) [M371] | 19.9 | 
PQLRQWWAQGADPLA (modifications not checked) [M247] | 20.1 | 
LLRPGQIVAFDSTAQ (modifications not checked) [M248] | 5.6 | 

Biological target: HLA monomer of the STII-TR-FRET peptide exchange assay (secreted HLA class II alpha/beta heterodimer; allele not stated)
Test: TR-FRET peptide exchange titration on 20nM DRB1*01:01 (STII-CLIP), 37C; displaced: m2

Molecule | IC50 (read off the curve)
CLIP (peptide) | 70 nM
